The text below walks through data of patent US20080107630.

The test system of this series is gelatin (0.1%, incorporated in a 10% Tris-glycine polyacrylamide gel as substrate).

Turning to “human matrix metalloproteinase-8 (recombinant, secreted by A549 cells infected with AdMMP8)”, the “gelatin hydrolysis in zymogram gel” value is recorded as “The gelatin hydrolysis visible in the zymogram gel”.
